Results reported in IntAct's records for PubMed 16717130.

B1: Serine/threonine-protein kinase PAK 1 (Homo sapiens), Q13153 (parent)
chain: MSNNGLDIQDKPPAPPMRNTSTMIGAGSKDAGTLNHGSKPLPPNPEEKKKKDRFYRSILPGDKTNKKKEKERPEISLPSDFEHTIHVGFDAVTGEFTGMPEQWARLLQTSNITKSEQKKNPQAVLDVLEFYNSKKTSNSQKYMSFTDKSAEDYNSSNALNVKAVSETPAVPPVSEDEDDDDDDATPPPVIAPRPEHTKSVYTRSVIEPLPVTPTRDVATSPISPTENNTTPPDALTRNTEKQKKKPKMSDEEILEKLRSIVSVGDPKKKYTRFEKIGQGASGTVYTAMDVATGQEVAIKQMNLQQQPKKELIINEILVMRENKNPNIVNYLDSYLVGDELWVVMEYLAGGSLTDVVTETCMDEGQIAAVCRECLQALEFLHSNQVIHRDIKSDNILLGMDGSVKLTDFGFCAQITPEQSKRSTMVGTPYWMAPEVVTRKAYGPKVDIWSLGIMAIEMIEGEPPYLNENPLRALYLIATNGTPELQNPEKLSAIFRDFLNRCLEMDVEKRGSAKELLQHQFLKIAKPLSSLTPLIAAAKEATKNNH

Variants of: B1
Conditions: with paxi_chick PXN
In the case of L107F, the “effect of a mutation on the interaction” value is reported as “increasing interaction”.
With K299A the “effect of a mutation on the interaction” value was “decreasing interaction”.
